The target of the assay is T1, HCMV gH/gL complex expressed in U373 astrocytoma cells (Human cytomegalovirus (HHV-5), strain …, UniProt P12824;P16832).
T1 construct: Human cytomegalovirus envelope glycoprotein H (gH); Human cytomegalovirus envelope glycoprotein L (gL); The immunisation plasmid and the peptide array used TB40/E gH, but no strain is named for the U373 cells; also called gH/gL-dimer; U373-gH/gL
Put plainly: flow cytometry on cells; Competition of the anti-gH mAbs with MSL-109. The set-up for MSL-109 is not told. The competition assay in the methods uses fixed, permeabilised U373-gH/gL cells, AF647-labelled antibody plus unlabelled antibody, 4 °C, 1 h. Particulars: one partner purified. A general note: A flow cytometer gives signals particle by particle.

B1: MSL-109 (antibody, V domains shown)
VH: EEQVLESGGGLVKPGGSLRLSCAASGFTFSPYSVFWVRQAPGKGLEWVSSINSDSTYKYYADSVKGRFTISRDNAENSIFLQMNSLRAEDTAVYYCARDRSYYAFSSGSLSDYYYGLDVWGQGTLVTVSS
VL: DIVMTQSPLSLSVTPGEPASISCRSSQSLLHTNGYNYLDWYVQKPGQSPQLLIYLASNRASGVPDRFSGSGSGTDFTLKISRVETEDVGVYYCMQALQIPRTFGQGTKVEIK
notes: Human IgG1 constant region from the pFuse vector (InvivoGen); Human kappa constant region from the pFuse vector (InvivoGen); Human IgG1 kappa; source: HEK-293, heavy and light chain co-transfected, purified from the cell supernatant
For the molecule B1, the binding result is “binds”.
